Test results as given in patent US20240240160A1, “NOVEL OLIVETOL SYNTHASES FOR C[…]” (priority 2021, published 2024).

Tests used:
[1] = test system: E. coli derivative strain which overexpressed an acyl-CoA synthetase (fadD) gene and expressed an olivetolic acid cyclase (OAC) from Cannabis sativa; assay: OL, OLA and PDAL production in E. coli from plasmid-expressed Type-III PKS genes; assay type: cell-based; conditions: gene on plasmid
How it was run: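 E. coli strains expressing codon-optimized Type-III PKS genes (constitutive promoter) plus fadD overexpression and C. sativa OAC, grown at 32° C in P-minimal medium with 2% glucose, spiked with 4 mM hexanoic acid; harvested 3 h or 21 h post-spike. Butyl acetate extracts BSTFA-derivatized, OLA/OL/PDAL quantified by GC-FID.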

[2] = test system: E. coli derivative strain which overexpressed an acyl-CoA synthetase (fadD) gene and expressed an olivetolic acid cyclase (OAC) from Cannabis sativa; assay: OL, OLA and PDAL production in E. coli from genome-integrated Type-III PKS genes; assay type: cell-based
Protocol: To test olivetolic acid production in E. coli, strains comprising a putative OLS gene and an OAC gene from C. sativa were inoculated in multi-well plates containing LB supplemented with 1% glucose and appropriate concentrations of antibiotics. After 6 hours of cultivation at 32° C., the cells were transferred with a 10% inoculum to a P-limited seed medium (see Table 2) and cultivated for ˜18 hours at 32° ° C. to reach an OD of 2.0-4.0. The cultures were transferred with a 20% inoculum in a P-minimal medium (see Table 3) supplemented with 2% glucose and appropriate concentrations of antibiotics. After 3 hours of cultivation at 32° C., the culture was spiked with 4 mM hexanoic acid (˜OD 1.5-2.0). The resulting cultures were then harvested at either 3 hours or 21 hours post hexanoic acid spike; a final OD was taken. 300 μL of butyl acetate containing 500 mg/L undecanoic acid was added to each multi-well plate. The plates were then vortexed for 30 minutes at 1500 rpm and centrifuged for 10 minutes at 4500 rpm. 50 μL of organic layer was transferred to a 96-well plate and derivatized with 50 μL of N,O-Bis(trimethylsilyl)trifluoroacetamide (BSTFA). The plate was then incubated at room temperature for 2 hours to allow for complete derivatization. The samples were then run on GC-FID for analytical quantification of olivetolic acid (OLA), olivetol (OL), PDAL, and hexanoic acid.
Olivetol, PDAL, OLA, HTAL, CBGA and combinations thereof were analyzed by LCMS or LCMS/MS methods using C18 reversed phase chromatography coupled to either EXACTIVE™ (ThermoFisher) or QTRAP® 4500 (Sciex) mass spectrometers.
For reversed phase LCMS, compounds were identified by their LC retention times and MRM transitions specific to the compounds. LCMS/MS analysis was conducted on a Shimadzu UHPLC system coupled with AB Sciex QTRAP 4500 mass spectrometer. Agilent Eclipse XDB C18 column (4.6×3.0 mm, 1.8 μm) was used with a 1-min gradient elution at 1 mL/min using water containing 0.1% ammonia acetate as mobile phase A and 90% methanol containing 0.1% ammonia acetate as mobile phase B. The LC column temperature was maintained at 45° C. Negative ionization mode was used for all the analytes.
Three of the type-III PKS genes from Example 1 were integrated under control of a constitutive promoter into an E. coli derivative strain which overexpressed an acyl-CoA synthetase (fadD) gene and expressed an olivetolic acid cyclase (OAC) from Cannabis sativa.
The in vivo assay procedure and analytical methods were performed as described above.

[3] = test system: hexanoyl-CoA and malonyl-CoA; assay: Specific activity assay of purified type-III polyketide synthases (OLA formation in presence of OAC); assay type: biochemical; conditions: hexanoyl-CoA and malonyl-CoA in the presence of OAC; FIG. 3
Protocol: In this Example, the specific activities of three previously uncharacterized type-III polyketide synthases (PKS) to form olivetolic acid from hexanoyl-CoA and malonyl-CoA in the presence of olivetolic acid cyclase (OAC) were determined and compared to the olivetol synthase (OLS) from C. sativa.
Assays were performed in a total volume of 50 μL in 100 mM Tris, pH 7.5 buffer containing 100 μM malonyl-CoA; 100 µM hexanoyl-CoA; a malonyl-CoA regenerating system comprising malonyl-CoA synthetase, excess malonate, and ATP; and excess purified olivetolic acid cyclase (OAC). The major product in this assay was olivetolic acid (OLA), and the triketide pentyl diacetic acid lactone (PDAL) was a side product. N-His-tagged purified enzymes were assayed under these assay conditions at enzyme concentrations and reaction times suitable for initial rate measurements of product formation. Reactions were initiated by addition of the PKS, then incubated for 30 min. Subsequently, 10 μL of reaction solution was removed and quenched into 15 volumes of 75% acetonitrile containing 0.1% formic acid and internal standards, then centrifuged to pellet denatured protein. Supernatants were transferred to fresh plates for LC-MS analysis of OLA, olivetol (OL), and PDAL as described in the Method section above.

[4] = test system: hexanoyl-CoA or butyryl-CoA; assay: High-throughput activity assay of OLS_Aro and its variants in cell lysate; assay type: biochemical; conditions: in the absence of Olivetolic acid Cyclase (OAC)
Excerpt: Single amino acid positions of interest of OLS_Aro were identified based on a 7 Å radial proximity around the active site predicted based on docking results with the tetraketide product into a structural homology model of OLS_Aro. Variants were constructed as a plasmid-based library using specific primers at the positions undergoing mutagenesis, amplifying fragments via Polymerase Chain Reaction (PCR), and circularizing plasmids via Gibson ligation. For site-saturation mutagenesis of selected amino acids sites, a compressed-codon approach was used to eliminate codon redundancy to lower library size. The plasmid-base used was the pZS*vector (Novagen) with expression of the OLS_Aro under control of a pAl promoter and lactose (lac) operator. […]
Single colonies were picked for growth in Luria Bertani (LB) medium in 384-well plates containing with carbenicillin (Carb). […] Cells pellets were stored at −20° C. until ready for assay. […]
Reactions were initiated by addition of cell lysate, then incubated for 20 mins or 1 hr for hexanoyl-CoA and butyryl-CoA, respectively. […] Filtrates analyzed by LC/MS for the quantification of olivetolic acid (OLA), olivetol (OL), and pentyl diacetic acid lactone (PDAL); or divarinic acid (DVA), divarinol (DVL), and propyl diacetic acid lactone (Propyl-DAL). […]
Under the screening conditions described above, products are detected in the low or sub μM range. […]

[5] = constitutive promoter, culture spiked with 4 mM hexanoic acid
[6] = constitutive promoter, 4 mM hexanoic acid

B1: QDX46968.1: Type-III PKS enzyme (OLS) from Anoectochilus roxburghii, designated OLS_Aro (protein, listed as Anoectochilus roxburghii)
chain: MPSLESIRKAPRADGLASILAIGRANPDNFMEQSSFPDFFFRITGSDHLVDLKKKFQRICDRTAIRKRHFVWNEEFIKANPCFSTFMDNSLNVRQEVAIREIPKLGAEAATKAIKEWGQPKSRITHLIFCTTSGMDLPGADYQLTRILGLNPNVERVMLYQQGCFAGGTTLRLAKCLAESRKGARVLVVCAETTTVLFRAPSEEHQEDLVTQALFADGASAVIVGADPDEEAHEKASFVIFSTSQVLLPDSEGAIGGHVSEGGLLATLHRDVPQLVSKNVGKCLEEAFTPLGISDWNSIFWVPHPGGRAILDQIEERVGLKPEKLTTSRHVLAEYGNMSSVCVHFVLDEMRKKSSKEGKATTGEGLEWGVLFGFGPGLTVETVVLRSVPL
modifications: (1)..(390) QDX46968.1
With B1 the Total ([1]; OL + OLA + PDAL) was 1956 µM, the “levels of OLA relative to the E. coli strain with OLS from C. sativa” value [1] was “over two-fold” and the OL [1, 5] was 597 µM. For the same molecule, the OLA [1, 5] was 823 µM, the PDAL [1, 5] was 536 µM and the “products produced by strains with chromosomally expressed enzyme” value [2] was “produced olivetol (OL), olivetolic acid (OLA) and pentyl diacetic acid lactone (PDAL)”. For the same molecule, the Total ([2]; OL + OLA + PDAL) was 276 µM, the OL [2, 6] was 98 µM and the OLA [2, 6] was 136 µM. The PDAL [2, 6] was 42 µM, the “specific activity to form olivetolic acid compared with OLS from C. sativa” value [3] was “higher specific activities” and the reaction products [4] was “the major products are OL and PDAL or DVL and Propyl-DAL”.
